According to paper PMC8907715, “Selection and identification of high‐affinity aptamer of Kunitz trypsin inhibitor and their application in rapid and specific detection”:

T1: Kunitz trypsin inhibitor (KTI) (UniProt P01070)
T1 sequence: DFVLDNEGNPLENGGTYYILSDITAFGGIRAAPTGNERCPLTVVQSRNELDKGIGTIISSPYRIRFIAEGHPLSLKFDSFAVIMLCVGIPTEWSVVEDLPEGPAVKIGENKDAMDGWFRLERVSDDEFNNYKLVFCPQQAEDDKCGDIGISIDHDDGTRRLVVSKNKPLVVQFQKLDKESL

T2: Kunitz trypsin inhibitor (KTI) (UniProt P01070 25-205)
T2 sequence: T1 sequence


Experiments:
[1] = target: T1, Kunitz trypsin inhibitor (KTI); assay: GO fluorescence assay; conditions: FAM-aptamer 0-600 nM with GO 60 min, then 1 uM KTI 2 h at room temperature in the dark; assay buffer, salt and pH not stated (oligos dissolved in TE pH 8.0)
[2] = target: T2, Kunitz trypsin inhibitor (KTI); assay: GO fluorescence assay; text gives 52.6 ± 11.4; FAM-aptamer 0-600 nM with GO 60 min, then 1 uM KTI 2 h at room temperature in the dark; assay buffer, salt and pH not stated (oligos dissolved in TE pH 8.0); conditions: protein: commercial; label: 5'-FAM

Molecule | Kd [1] [nM] | Kd [2] [nM]
CCAACCTGTGGCATTTGGTAACTTGATCTTACGGTGTTCG [Akti-10] | 22.6 | –
CTGGTGTTTTCTTTACGCATAACAAGGCCCCTGAGAGGCT [Akti-9] | 134 | –
TGTACCGCCCACCTGCCGCTAACGGCGGTGCTGCGGTGCG [Akti-28] | 164 | –
GGTCGTGAGGCCCACCGCTGAGCTCTAGTATCGCTCGGCG [Akti-11] | 116 | –
TCTGGCTTCTGATCTGATGTTTTTACTATCGGTATTTCTA [Akti-15] | 67.9 | –
CTTCGTATCCTGTGCTGCAGTTGTTTTTAAGTGCTGGGAG (ssDNA) [Akti-5] | – | 52.5 ± 11.3
